From patent publication US20240247080A1, “GLP1/GIP/NPY2 RECEPTOR TRIPLE AGONISTS” (Boehringer Ingelheim International GmbH, priority 2022, published 2024)
Substitutions are numbered along the chain they refer to. Starred links: 1 amine or outer side, 2 acyl side, 3 side chain; linkers in the order of their positions; H or OH if unused. Non-standard residues stand in square brackets, D forms with d. Groups on a side chain read outwards from the residue. No end group written: not given here. *: point of attachment. C20 diacid = O=C(O)CCCCCCCCCCCCCCCCCCC(=O)*; γGlu = O=C(O)[C@H](CCC(=O)[*:2])N[*:1]; εLys = N[C@@H](CCCCN[*:1])C(=O)[*:2]; AEEA = NCCOCCOCC(=O)O; Aib = CC(C)(N)C(=O)O

B1: Compound 111 (peptide)
peptide: YXEGTFTSDYSIXLEKQAQXAFVQWLIKGGPSEPASLRHYYNWLTRQRY
modifications: Aib at 2, 13, 20; K28 side chain: C20DA-gGlu-gGlu-gGlu-gGlu-gGlu-OEG-OEG; C-terminal NH2
B2: Compound 116 (peptide)
peptide: B1 peptide with K16E, Q24E, E33S, P34G
modifications: Aib at 2, 13, 20; K28 side chain: C20DA-gGlu-gGlu-gGlu-gGlu-gGlu-gGlu-eLys; C-terminal NH2
B3: Compound 120 (peptide)
peptide: B1 peptide with Q24E, E33S
modifications: Aib at 2, 13, 20; K28 side chain: C20DA-gGlu-gGlu-gGlu-gGlu-gGlu-OEG-OEG; C-terminal NH2
B4: Compound 121 (peptide)
peptide: B1 peptide with K16S, Q24E, E33S, P34G
modifications: Aib at 2, 13, 20; K28 side chain: C20DA-gGlu-gGlu-gGlu-gGlu-gGlu-gGlu-eLys; C-terminal NH2
B5: Compound 114 (peptide)
peptide: B1 peptide with P34G, A35V
modifications: Aib at 2, 13, 20; K28 side chain: C20DA-gGlu-gGlu-gGlu-gGlu-gGlu-gGlu-eLys; C-terminal NH2
B6: Compound 112 (peptide)
peptide: B1 peptide with E33S, P34G
modifications: Aib at 2, 13, 20; K28 side chain: C20DA-gGlu-gGlu-gGlu-gGlu-gGlu-OEG-OEG; C-terminal NH2
B7: Compound 122 (peptide)
peptide: B1 peptide with Q24E, A35E
modifications: Aib at 2, 13, 20; K28 side chain: C20DA-gGlu-gGlu-gGlu-gGlu-gGlu-gGlu-eLys; C-terminal NH2
B8: Compound 118 (peptide)
peptide: B1 peptide with Q24E, E33S, P34G, L37X
modifications: Aib at 2, 13, 20, 37; K28 side chain: C20DA-gGlu-gGlu-gGlu-gGlu-gGlu-gGlu-eLys; C-terminal NH2
B9: Compound 117 (peptide)
peptide: B1 peptide with Q24E, E33S, P34G, L37V
modifications: Aib at 2, 13, 20; K28 side chain: C20DA-gGlu-gGlu-gGlu-gGlu-gGlu-gGlu-eLys; C-terminal NH2
B10: Compound 119 (peptide)
peptide: B1 peptide with Q24E, E33S, P34G, H39X
modifications: Aib at 2, 13, 20; Tle at 39; K28 side chain: C20DA-gGlu-gGlu-gGlu-gGlu-gGlu-gGlu-eLys; C-terminal NH2
B11: Compound 123 (peptide)
peptide: B1 peptide with Q24E, P31Q, E33S, P34G
modifications: Aib at 2, 13, 20; K28 side chain: C20DA-gGlu-gGlu-gGlu-gGlu-gGlu-gGlu-eLys; C-terminal NH2
B12: Compound 115 (peptide)
peptide: B1 peptide with P34G
modifications: Aib at 2, 13, 20; NMeQ at 47; K28 side chain: C20DA-gGlu-gGlu-gGlu-gGlu-gGlu-gGlu-eLys; C-terminal NH2

Columns and labels:
Assay in all cases: cell-based or functional assay
human GLP-1 receptor = human GLP-1 receptor (human, UniProt P43220 24-463)
human GIP receptor = biological target: T1, human GIP receptor (human, UniProt P48546 22-466)
T1 sequence (looked up): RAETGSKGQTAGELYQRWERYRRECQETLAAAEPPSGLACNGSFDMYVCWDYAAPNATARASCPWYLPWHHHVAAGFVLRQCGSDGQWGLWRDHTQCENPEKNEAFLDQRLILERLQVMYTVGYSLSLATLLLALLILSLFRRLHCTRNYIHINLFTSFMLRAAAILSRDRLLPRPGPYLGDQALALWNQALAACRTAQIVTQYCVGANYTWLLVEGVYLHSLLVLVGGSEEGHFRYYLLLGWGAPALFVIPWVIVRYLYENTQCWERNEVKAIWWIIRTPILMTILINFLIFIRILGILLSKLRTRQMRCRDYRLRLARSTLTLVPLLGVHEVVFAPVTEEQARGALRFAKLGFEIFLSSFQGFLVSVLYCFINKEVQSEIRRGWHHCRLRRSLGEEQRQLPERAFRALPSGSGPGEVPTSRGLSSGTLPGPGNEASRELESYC

[1] = biological target: T2, human neuropeptide Y2 receptor (human, UniProt P49146 1-381)
T2 sequence (looked up): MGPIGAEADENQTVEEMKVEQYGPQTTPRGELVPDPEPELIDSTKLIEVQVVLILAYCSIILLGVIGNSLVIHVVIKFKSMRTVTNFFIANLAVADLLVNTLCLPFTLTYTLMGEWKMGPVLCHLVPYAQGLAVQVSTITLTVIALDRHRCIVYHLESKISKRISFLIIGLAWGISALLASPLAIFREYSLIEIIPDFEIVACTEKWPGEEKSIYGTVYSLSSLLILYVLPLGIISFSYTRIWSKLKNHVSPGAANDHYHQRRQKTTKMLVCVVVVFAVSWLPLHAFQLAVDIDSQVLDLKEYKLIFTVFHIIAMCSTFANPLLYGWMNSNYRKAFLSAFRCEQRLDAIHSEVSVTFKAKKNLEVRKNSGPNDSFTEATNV

Binder | EC50 CreLuc hGLP1R 0.5% hP (human GLP-1 receptor) [nM] | EC50 CreLuc hGLP1R 100% hP (human GLP-1 receptor) [nM] | EC50 CreLuc hGIPR 0.5% hP (human GIP receptor) [nM] | EC50 CreLuc hGIPR 100% hP (human GIP receptor) [nM] | EC50 CreLuc hNPY2R 0.5% hP [1] [nM] | EC50 CreLuc hNPY2R 100% hP [1] [nM]
B1 | 0.12 | 5.32 | 0.55 | 1.96 | 13.4 | 36.8
B2 | 0.14 | 2.48 | 0.43 | 3.01 | 13.5 | 85.7
B3 | 0.11 | 4.65 | 0.34 | 1.44 | 10.7 | 39.2
B4 | 0.18 | 7.09 | 0.65 | 7.29 | 23.8 | 88.9
B5 | 0.15 | 5.56 | 0.27 | 2.34 | 7.73 | 44.8
B6 | 0.06 | 1.7 | 0.19 | 0.83 | 8.05 | 27.6
B7 | 0.22 | 4.97 | 0.08 | 1.53 | 26.3 | 78.9
B8 | 0.05 | 0.84 | 0.06 | 0.55 | 6.2 | 26.2
B9 | 0.13 | 1.8 | 0.14 | 1.18 | 6.81 | 24.6
B10 | 0.26 | 4.46 | 0.63 | 4.31 | 23.1 | 80.1
B11 | 0.24 | 7.88 | 0.42 | 4.11 | 6.12 | 31.3
B12 | 0.12 | 3.45 | 0.51 | 1.89 | 7.8 | 30.6
Y[Aib]EGTFTSDYSI[Aib]LEEQAQ[Aib]AFVEWLIK([εLys-AEEA-γGlu-γGlu-γGlu-γGlu-γGlu-C20 diacid])GGPSSGASLRHYYNWLTRQRY-NH2 [Compound 110] | 0.15 | 1.53 | 0.15 | 1.14 | 17.5 | 42.5
Y[Aib]EGTFTSDLSI[Aib]LEKQAQ[Aib]AFVQWLIKGGPSEGASLRHYYNWLTRQRY-NH2 (not fully specified (residue 28)) [Compound 113] | 0.19 | 3.72 | 0.56 | 3.84 | 19.5 | 49.9
Y[Aib]EGTFTSDYSI[Aib]LEKQAQ[Aib]AFVEWLLKGGPSSGASLRHYYNWLTRQRY-NH2 (not fully specified (residue 28)) [Compound 109] | 0.28 | 3.32 | 0.09 | 0.64 | 10.8 | 52.2
Y[Aib]EGTFTSDYSI[Aib]LEKQAQ[Aib]AFVQWLIKGGPEEGASLRHYYNWLTRQRY-NH2 (not fully specified (residue 28)) [Compound 108] | 0.4 | 6.16 | 0.3 | 2.14 | 14.8 | 57.4
